Measurements as given in patent US11008403 (dated 2021).
Changes are numbered by the printed parent chain. Names and notes keep the numbering of the source. Values joined by “and” are separate entries in the source; they are usually repeats but may differ in a detail not shown here. Equal entries are not always repeated.

T1: cyno TfR ECD (cynomolgus)
T1 chain: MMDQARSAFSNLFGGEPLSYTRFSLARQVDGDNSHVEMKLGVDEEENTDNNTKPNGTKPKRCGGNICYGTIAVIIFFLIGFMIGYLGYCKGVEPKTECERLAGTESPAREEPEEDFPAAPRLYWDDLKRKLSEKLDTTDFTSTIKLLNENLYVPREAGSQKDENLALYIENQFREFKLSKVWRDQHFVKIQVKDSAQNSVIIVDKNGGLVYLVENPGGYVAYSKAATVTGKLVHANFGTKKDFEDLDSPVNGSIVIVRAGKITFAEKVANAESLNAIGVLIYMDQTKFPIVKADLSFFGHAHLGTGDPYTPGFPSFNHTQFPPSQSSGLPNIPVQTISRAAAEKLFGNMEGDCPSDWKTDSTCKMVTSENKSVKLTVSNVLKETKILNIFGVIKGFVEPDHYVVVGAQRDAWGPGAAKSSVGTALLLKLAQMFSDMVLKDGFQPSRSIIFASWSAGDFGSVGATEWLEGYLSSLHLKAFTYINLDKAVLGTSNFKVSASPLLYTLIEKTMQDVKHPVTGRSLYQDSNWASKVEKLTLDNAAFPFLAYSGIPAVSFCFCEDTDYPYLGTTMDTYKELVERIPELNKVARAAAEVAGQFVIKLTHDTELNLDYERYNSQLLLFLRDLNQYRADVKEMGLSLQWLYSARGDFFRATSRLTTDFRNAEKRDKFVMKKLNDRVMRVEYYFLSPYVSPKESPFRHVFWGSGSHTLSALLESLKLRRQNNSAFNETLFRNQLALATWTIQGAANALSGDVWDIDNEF

B1: Mu15G11 Fab (antibody, V domains shown)
VH: QVQLQQPGAELVKPGASVKLSCKASGYTFTSYWMHWVKQRPGQGLEWIGEINPTNGRTNYIEKFKSKATLTVDKSSSTAYMQLSSLTSEDSAVYYCARGTRAYHYWGQGTSVTVSS
VL: DIQMTQSPASLSVSVGETVTITCRASDNLYSNLAWYQQKQGKSPQLLVYDATNLADGVPSRFSGSGSGTQYSLKINSLQSEDFGTYYCQHFWGTPLTFGAGTKLELK
B2: Hu16F6.v4 Fab (antibody, V domains shown)
VH: EVQLVESGPGLVKPSETLSLTCTVSGNSITSEYAWNWIRQPPGKGLEWIGYISYSGTTSYNPSLKSRVTISRDTSKNQLSLKLSSVTAADTAVYYCARYGYGNPATRYFDVWGQGTLVTVSS
VL: DIQMTQSPSSLSASVGDRVTITCRASKSISKYLAWYQQKPGKTNKLLLYSGSTLQSGVPSRFSGSGSGTDYTLTISSLQPEDFATYYCQQHNEYPWTFGQGTKVEIK
B3: Mu7A4 Fab (antibody, V domains shown)
VH: QVQLQQSGPELVRPGVSVKISCKGSGYTFTDYAMHWVKQSHAKSLEWIGGISTYFGRTNYNQKFKGRATMTVDKSSSTAYMELARLTSEDSALYYCARGLSGNYVMDYWGQGTSVTVSS
VL: DIVLTQSPASLAVSLGQRATISCRASESVDSYGNSFMHWYQQKPGQPPKLLIYRASNLESGIPARFSGSGSRTDFTLTINPVEADDVATYYCQQSNEGPPTFGGGTKLEIK
B4: Mu16F6 Fab (antibody, V domains shown)
VH: DVQLQESGPGLVKPSQSLSLTCTVTGNSITSEYAWNWIRQFPGNKLEWMGYISYSGTTSYNPSLKSRISITRDTSKNQLFLQLNSVTTEDTATYFCARYGYGNPATRYFDVWGAGTTVTVSS
VL: DVQITQSPSYLTASPGETITINCRASKSISKYLAWYQEKPGKTNKLLIYSGSTLQSGIPSRFSGSGSGTDFTLTISNLEPEDFAMYYCQQHNEYPWTFGGGTKLEIK
B5: hu15G11.v5 HC Y27A (antibody, V domains shown)
VH: EVQLVQSGAEVKKPGASVKVSCKASGATFTSYWMHWVRQAPGQRLEWIGEINPTNGRTNYIEKFKSRATLTVDKSASTAYMELSSLRSEDTAVYYCARGTRAYHYWGQGTMVTVSS
VL: DIQMTQSPSSLSASVGDRVTITCRASDNLYSNLAWYQQKPGKSPKLLVYDATNLADGVPSRFSGSGSGTDYTLTISSLQPEDFATYYCQHFWGTPLTFGQGTKVEIK
B6: hu15G11.v5 IgG (antibody, V domains shown)
VH: B5 VH with A27Y
VL: B5 VL
B7: hu15G11.v5 LC T52A (antibody, V domains shown)
VH: B5 VH with A27Y
VL: B5 VL with T52A
B8: hu15G11.v5 HC S31A (antibody, V domains shown)
VH: B5 VH with A27Y, S31A
VL: B5 VL
B9: hu15G11.v5 HC W33A (antibody, V domains shown)
VH: B5 VH with A27Y, W33A
VL: B5 VL
B10: hu15G11.v5 HC E50A (antibody, V domains shown)
VH: B5 VH with A27Y, E50A
VL: B5 VL
B11: hu15G11.v5 LC R24A (antibody, V domains shown)
VH: B5 VH with A27Y
VL: B5 VL with R24A
B12: hu15G11.v5 LC S31A (antibody, V domains shown)
VH: B5 VH with A27Y
VL: B5 VL with S31A
B13: hu15G11.v5 LC N53A (antibody, V domains shown)
VH: B5 VH with A27Y
VL: B5 VL with N53A
B14: hu15G11.v5 LC N32A (antibody, V domains shown)
VH: B5 VH with A27Y
VL: B5 VL with N32A
B15: hu15G11.v5 LC N28A (antibody, V domains shown)
VH: B5 VH with A27Y
VL: B5 VL with N28A
B16: hu15G11.v5 HC T53A (antibody, V domains shown)
VH: B5 VH with A27Y, T54A
VL: B5 VL
B17: hu15G11.v5 LC D56A (antibody, V domains shown)
VH: B5 VH with A27Y
VL: B5 VL with D56A
B18: hu15G11.v5 HC G49A (antibody, V domains shown)
VH: B5 VH with A27Y, G49A
VL: B5 VL
B19: hu15G11.v5 LC L29A (antibody, V domains shown)
VH: B5 VH with A27Y
VL: B5 VL with L29A
B20: hu15G11.v5 HC G26A (antibody, V domains shown)
VH: B5 VH with G26A, A27Y
VL: B5 VL
B21: hu15G11.v5 HC Y32A (antibody, V domains shown)
VH: B5 VH with A27Y, Y32A
VL: B5 VL
B22: hu15G11.v5 LC L33A (antibody, V domains shown)
VH: B5 VH with A27Y
VL: B5 VL with L33A
B23: hu15G11.v5 LC D50A (antibody, V domains shown)
VH: B5 VH with A27Y
VL: B5 VL with D50A
B24: hu15G11.v5 LC Y30A (antibody, V domains shown)
VH: B5 VH with A27Y
VL: B5 VL with Y30A
B25: hu15G11.v5 HC T28A (antibody, V domains shown)
VH: B5 VH with A27Y, T28A
VL: B5 VL
B26: hu15G11.v5 LC L54A (antibody, V domains shown)
VH: B5 VH with A27Y
VL: B5 VL with L54A
B27: hu15G11.v5 LC S26A (antibody, V domains shown)
VH: B5 VH with A27Y
VL: B5 VL with S26A
B28: hu15G11.v5 LC D27A (antibody, V domains shown)
VH: B5 VH with A27Y
VL: B5 VL with D27A
B29: hu15G11.v5 HC N52A (antibody, V domains shown)
VH: B5 VH with A27Y, N52A
VL: B5 VL
B30: hu15G11.v5 HC M34A (antibody, V domains shown)
VH: B5 VH with A27Y, M34A
VL: B5 VL
B31: hu15G11.v5 HC T30A (antibody, V domains shown)
VH: B5 VH with A27Y, T30A
VL: B5 VL
B32: hu15G11.v5 HC I51A (antibody, V domains shown)
VH: B5 VH with A27Y, I51A
VL: B5 VL
B33: hu15G11.v5 HC F29A (antibody, V domains shown)
VH: B5 VH with A27Y, F29A
VL: B5 VL

Key:
human TfR ECD [1] = target: human TfR ECD (human); test: SPR
cyno TfR ECD [2] = target: T1, cyno TfR ECD; test: SPR
human TfR ECD [3] = target: human TfR ECD (human); test: ELISA
cyno TfR ECD [4] = target: T1, cyno TfR ECD; test: ELISA

Chain of human TfR ECD (human) (chain, as listed by the source): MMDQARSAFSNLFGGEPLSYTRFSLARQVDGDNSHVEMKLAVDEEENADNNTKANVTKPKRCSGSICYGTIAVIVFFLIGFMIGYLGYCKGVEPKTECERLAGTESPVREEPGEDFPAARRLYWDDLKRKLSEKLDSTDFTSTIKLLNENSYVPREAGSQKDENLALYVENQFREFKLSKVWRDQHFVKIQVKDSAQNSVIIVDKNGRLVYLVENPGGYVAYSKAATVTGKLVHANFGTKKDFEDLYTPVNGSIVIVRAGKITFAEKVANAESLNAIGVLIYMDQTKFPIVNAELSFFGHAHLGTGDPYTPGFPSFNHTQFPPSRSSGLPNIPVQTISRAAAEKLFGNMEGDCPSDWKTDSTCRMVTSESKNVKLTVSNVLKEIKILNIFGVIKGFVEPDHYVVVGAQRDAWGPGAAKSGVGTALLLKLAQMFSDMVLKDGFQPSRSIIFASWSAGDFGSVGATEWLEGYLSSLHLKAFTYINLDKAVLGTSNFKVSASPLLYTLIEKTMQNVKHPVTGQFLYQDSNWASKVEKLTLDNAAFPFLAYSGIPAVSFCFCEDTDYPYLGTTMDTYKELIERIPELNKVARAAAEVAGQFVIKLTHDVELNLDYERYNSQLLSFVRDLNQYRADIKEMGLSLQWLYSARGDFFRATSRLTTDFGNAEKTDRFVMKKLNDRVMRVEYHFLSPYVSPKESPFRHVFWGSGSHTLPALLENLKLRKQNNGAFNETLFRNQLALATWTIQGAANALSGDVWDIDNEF

Kd (human TfR ECD [1]) [nM]	Kd (cyno TfR ECD [2])	EC50 (human TfR ECD [3]) [ng/mL]	EC50 (cyno TfR ECD [4]) [ng/mL]	Binder
3.37	5.81 nM and 7.57 nM	–	–	B1
1.29	24.7 nM	–	–	B2
0.19	0.741 nM	–	–	B3
3.13	26.8 nM	–	–	B4
–	–	21.1	1470	B5
–	–	0.8	1.8	B6
–	–	0.2	0.3	B7
–	–	0.05	0.1	B8
–	–	59.6	362	B9
–	–	20.6	410	B10
–	–	0.1	0.4	B11
–	–	0.3	0.7	B12
–	–	0.3	0.6	B13
–	–	1.6	4	B14
–	–	0.2	0.8	B15
–	–	0.3	0.7	B16
–	–	0.3	0.5	B17

Kd (human TfR ECD [1]) [nM]	Kd (cyno TfR ECD [2])	EC50 (human TfR ECD [3]) [ng/mL]	EC50 (cyno TfR ECD [4]) [ng/mL]	Binder
–	–	0.3	1.1	B18
–	–	0.3	0.9	B19
–	–	1.1	6.1	B20
–	–	0.4	1.4	B21
–	–	0.05	0.1	B22
–	–	0.2	0.5	B23
–	–	0.3	1	B24
–	–	0.4	0.8	B25
–	–	0.4	0.5	B26
–	–	0.2	0.6	B27
–	–	0.2	0.8	B28
–	–	0.3	0.9	B29
–	–	0.4	1.1	B30
–	–	0.4	0.9	B31
–	–	0.2	0.6	B32
–	–	1.5	12.5	B33
